Data: publication PMC8155523, “Non-covalent Interaction With SUMO Enhances the Activity of Human Cytomegalovirus Protein IE1” (Frontiers in Cell and Developmental Biology, 2021)

Biological target: T1, SUMO1 (UniProt P63165 1-97)
T1 construct: SUMO1, expressed from SUMO1-pQE80L; Uniformly 15N-labelled for NMR; Plasmid obtained from Rama Koti, TIFR, Mumbai; also called 15N-SUMO1; 15N-wt-SUMO1; source: E. coli BL21 (DE3), 15NH4Cl-M9 medium, purified (Ni-NTA, Superdex 75)
Test: NMR titration; IE1-SIM peptides titrated into ~0.3 mM 15N-SUMO1 or 15N-SUMO2 up to 1:4 (SUMO:SIM); 15N-HSQC, 298K, 800 MHz; PBS, 5 mM DTT, 10% D2O; CSPs fit to a 1:1 model
Conditions: both partners purified

T1 sequence (P63165 1-97): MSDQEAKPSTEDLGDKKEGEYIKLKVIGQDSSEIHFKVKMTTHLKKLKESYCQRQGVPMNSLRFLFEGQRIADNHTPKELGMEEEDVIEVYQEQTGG

Binder	Kd [µM]
PATIPLSSVIVAENSDQEE (Human Cytomegalovirus Immediate-Early protein 1 (IE1), peptide around SIM2 (VIVA, aa 416-419); source: synthetic peptide (Lifetein)) [IE1-SIM2 peptide]	136 ± 32
RPLITKPEVISVMKRRIEE (Human Cytomegalovirus Immediate-Early protein 1 (IE1), peptide around SIM1 (VISV, aa 335-338); source: synthetic peptide (Lifetein)) [IE1-SIM1 peptide]	134 ± 23.2
